In article PMC11663931:

How the values were obtained:
[1] = molecular target: human recombinant RetGC1 (retinal membrane guanylyl cyclase 1) (human) (UniProt Q02846)
[2] = molecular target: human recombinant RetGC1 (retinal membrane guanylyl cyclase 1) (human) (UniProt Q02846); remark: listed apart in the source

UniProt Q02846, sequence (Q02846 52-1103): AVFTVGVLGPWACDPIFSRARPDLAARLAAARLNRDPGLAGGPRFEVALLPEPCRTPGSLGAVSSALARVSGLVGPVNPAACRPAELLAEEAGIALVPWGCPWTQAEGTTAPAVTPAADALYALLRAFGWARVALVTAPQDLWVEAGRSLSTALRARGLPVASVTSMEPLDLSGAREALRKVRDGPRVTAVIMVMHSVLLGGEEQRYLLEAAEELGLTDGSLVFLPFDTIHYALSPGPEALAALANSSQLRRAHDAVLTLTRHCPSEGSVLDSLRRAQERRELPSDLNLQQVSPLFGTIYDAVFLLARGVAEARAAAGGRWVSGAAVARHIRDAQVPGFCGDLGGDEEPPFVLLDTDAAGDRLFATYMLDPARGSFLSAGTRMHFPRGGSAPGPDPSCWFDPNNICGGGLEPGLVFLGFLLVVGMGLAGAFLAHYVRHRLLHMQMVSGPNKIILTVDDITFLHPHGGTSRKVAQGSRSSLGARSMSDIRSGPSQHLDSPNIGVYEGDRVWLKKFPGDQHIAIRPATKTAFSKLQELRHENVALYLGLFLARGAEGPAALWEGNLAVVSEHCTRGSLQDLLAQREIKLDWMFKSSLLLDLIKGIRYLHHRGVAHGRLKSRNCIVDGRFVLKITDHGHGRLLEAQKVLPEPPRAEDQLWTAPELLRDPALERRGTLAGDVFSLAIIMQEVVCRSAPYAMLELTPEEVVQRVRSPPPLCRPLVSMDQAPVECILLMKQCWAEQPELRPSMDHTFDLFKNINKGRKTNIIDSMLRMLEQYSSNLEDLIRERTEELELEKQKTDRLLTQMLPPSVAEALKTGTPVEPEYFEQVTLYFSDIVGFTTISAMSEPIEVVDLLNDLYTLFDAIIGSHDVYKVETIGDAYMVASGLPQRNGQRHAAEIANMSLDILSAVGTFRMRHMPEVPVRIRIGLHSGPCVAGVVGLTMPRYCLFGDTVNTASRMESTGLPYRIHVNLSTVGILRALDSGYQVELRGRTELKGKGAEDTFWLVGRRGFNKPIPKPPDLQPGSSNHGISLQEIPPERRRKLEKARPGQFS

K1/2 of GCAP1 for activating the guanylyl cyclase activity of recombinant RetGC1, with additional 50 mM NaCl instead of bicarbonate (pilot measurement, not shown) [1]: 2 µM | K1/2 of GCAP1 for activating the guanylyl cyclase activity of recombinant RetGC1 in HEK293 membranes (hyperbolic fit, 0-10 μM GCAP1), with 50 mM NaHCO3 [2]: 2.9 µM | K1/2 of GCAP1 for activating the guanylyl cyclase activity of recombinant RetGC1 in HEK293 membranes (hyperbolic fit, 0-10 μM GCAP1), without NaHCO3 [2]: 1.47 µM
B1: purified myristoylated bovine GCAP1 (guanylyl cyclase activating protein 1) (natural protein)
chain: MGNIMDGKSVEELSSTECHQWYKKFMTECPSGQLTLYEFRQFFGLKNLSPWASQYVEQMFETFDFNKDGYIDFMEYVAALSLVLKGKVEQKLRWYFKLYDVDGNGCIDRDELLTIIRAIRAINPCSDSTMTAEEFTDTVFSKIDVNGDGELSLEEFMEGVQKDQMLLDTLTRSLDLTRIVRRLQNGEQDEEGASGRETEAAEADG
modifications: N-myristoylated
